Results on 7 molecules are retold here after US12454572B2, “Methods of treating anemia in myelodysplastic syndromes” (Dana-Farber Cancer Institute, Inc., priority 2021, dated 2025).

In one series the test system is MDS patients. Particulars: cited from earlier work.
The target in series [1] is T1, IL-22 (Mus musculus, UniProt Q9JJY9).
T1 sequence (Q9JJY9 34-179): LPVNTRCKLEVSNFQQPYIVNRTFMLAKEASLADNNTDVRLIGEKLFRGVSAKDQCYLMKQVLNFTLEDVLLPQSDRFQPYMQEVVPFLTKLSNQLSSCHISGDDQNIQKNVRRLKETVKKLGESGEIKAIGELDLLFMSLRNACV
Nature of the series: IL-22 neutralization with anti-IL-22 antibody in mice undergoing PhZ-induced stress erythropoiesis. The format is in vivo. Set-up: endogenous in cells; host or cells: living mice (wt C57BL/6J; Riok2f/+Vav1cre and Riok2+/+Vav1cre). Conditions: for frequency of apoptotic erythroid progenitors/precursors: viable BM cells. The procedure: (§1) Phenylhydrazine (PhZ) was purchased from Sigma and injected intraperitoneally on 2 consecutive days (days 0 and 1) at a dose of 25 mg/kg. Peripheral blood was collected 3-4 days before the start of treatment and at day 4, 7 and 11. PhZ treatment experiments were carried out in 8-16 week-old mice.
(§2) Monoclonal anti-IL-22 (Clone IL22JOP) blocking antibody and isotype control IgG2a (Clone eBR2a) were purchased from Thermo Fisher Scientific. Mice were administered anti-IL-22 (50 μg/mouse) or isotype intraperitoneally every 48 h until the conclusion of the experiment. For recombinant IL-22 treatment, mice were injected with recombinant IL-22 (500 ng/mouse; PeproTech) intraperitoneally every 24 h until the conclusion of the experiment.
(§3) Mice were bled via the submandibular facial vein to collect blood in EDTA-coated tubes (BD MICROTAINER™ Capillary Blood Collector, BD 365974). Complete blood counts were obtained using the HemaVet CBC Analyzer (Drew Scientific) or Advia 120 (Siemens Inc.,) instruments.
(§4) Phenylhydrazine (PhZ) was purchased from Sigma and injected intraperitoneally on 2 consecutive days (days 0 and 1) at the dose of 25 mg/kg (sublethal model) or 35 mg/kg (lethal model). Peripheral blood was collected 3-4 days before the start of treatment and at day 4, 7, and 11. PhZ treatment experiments were carried out in 8-12 week old mice.
(§5) Monoclonal anti-IL-22 (Clone IL22JOP) blocking antibody and isotype control IgG2aκ (Clone eBR2a) were purchased from Thermo Fisher Scientific. Mice were administered anti-IL-22 (50 μg/mouse) or isotype intraperitoneally every 48 h until the conclusion of the experiment. For recombinant IL-22 treatment, mice were injected with recombinant IL-22 (500 ng/mouse; PeproTech) intraperitoneally every 24 h until the conclusion of the experiment. Mice were administered these reagents at least five times before inducing PhZ-mediated anemia.

The target in series [2] is T1, IL-22. Conditions: cited from earlier work.
The target of series [3] is T1, IL-22. Nature of the series: anti-IL-22 antibody in naive, non-anemic wt C57BL/6J mice. Format: in vivo. Further details: endogenous in cells; host or cells: living mice (wt C57BL/6J; Riok2f/+Vav1cre and Riok2+/+Vav1cre). Conditions: healthy, anti-IL-22 vs isotype. How it is done: as §2, §3, §5
A further series concerns wild-type TH22 cells. Nature of the series: secreted IL-22 from in vitro polarized wild-type TH22 cells. Conditions: for secreted IL-22: pifithrin-α, p-nitro 1 μM, Nutlin-3 100 nM. The format is cell-based, mouse. The procedure: Single-cell suspensions of mouse spleens were prepared by pressing tissue through a 70-μm cell strainer followed by red blood cell lysis using PharmLyse. Total splenic CD4^+ T cells were isolated using CD4 T cell isolation kit (Miltenyi Biotec). Enriched CD4^+ T cells were then incubated with fluorochrome-conjugated antibodies to CD4, CD8, CD25, CD62L, and CD44 to purify naïve CD4^+ T cells using fluorescence activated cell sorting (FACS). In the presence of 1 μg/mL plate-bound anti-CD3ε and soluble 1 μg/mL anti-CD28, T cell polarizations were carried out in IMDM supplemented with 10% FBS, 2 mM L-glutamine, […] penicillin-streptomycin, HEPES (pH 7.2-7.6), non-essential amino acids, 100 μM β-mercaptoethanol (BME), and sodium pyruvate as follows—TH1 (20 ng/mL IL-12, 10 μg/mL anti-IL-4), TH2 (20 ng/mL IL-4, 10 μg/mL anti-IFN-γ), TH17 (30 ng/mL IL-6, 20 ng/mL IL-23, 20 ng/mL IL-1β, 10 μg/mL anti-IL-4, 10 μg/mL anti-IFN-γ), Treg cells (1 ng/mL TGF-β, 10 μg/mL anti-IL-4, 10 μg/mL anti-IFN-γ), and TH22 (30 ng/mL IL-6, 20 ng/mL IL-23, 20 ng/mL IL-1β, 10 μg/mL anti-IL-4, 10 μg/mL anti-IFN-γ, 400 nM FICZ). Pifithrin-α, p-Nitro and Nutlin-3a were purchased from Santa Cruz Biotechnology and Tocris Biosciences, respectively.
IL-22 in human samples was quantified using either Human IL-22 Quantikine ELISA Kit (D2200, R&D Systems) or SMCTM Human IL-22 High Sensitivity Immunoassay Kit (EMD Millipore, 03-0162-00) according to manufacturers' instructions. The SMC assay was read on a SMC Pro (EMD Millipore) instrument. The lower limit of quantification (LLOQ) of this immunoassay is 0.1 pg/mL. IL-22 in mouse samples was quantified using ELISA MAX™ Deluxe Set Mouse IL-22 (BioLegend, 436304). The LLOQ of this immunoassay is 3.9 pg/mL. S100A8 in human samples was quantified using Human S100A8 DuoSet ELISA (DY4570, R&D Systems).

For the next series, the system named is Lin- BM cells. Put plainly: in vitro erythropoiesis assay (erythroid differentiation of Lin- BM cells). The format is cell-based, mouse. Conditions: for p53 expression: culture treated with rIL-22 vs PBS. How it is done:
Whole BM cells were labeled with biotin-conjugated lineage antibodies (cocktail of anti-CD3ε, anti-CD11b, anti-CD45R/B220, anti-Gr1, anti-CD5, and anti-TER-119) (BD Pharmingen) and purified using anti-biotin beads and negative selection on the AutoMACS Pro (Miltenyi). Purified cells were then seeded in fibronectin-coated (2 μg/cm^2) tissue-culture treated polystyrene wells (CORNING® BIOCOAT™ Cellware) at a cell density of 10^5/mL. Erythroid differentiation was carried out according to modified published protocols. The erythropoietic medium was IMDM supplemented with erythropoietin at 10 U/mL, 10 ng/mL stem cell factor SCF, PeproTech), 10 μM Dexamethasone (Sigma-Aldrich), 15% FBS, 1% detoxified BSA (StemCell Technologies), 200 μg/mL holotransferrin (Sigma-Aldrich), […] human insulin (Sigma-Aldrich), 2 mM L-glutamine, 0.1 mM β-mercaptoethanol, and penicillin-streptomycin. After 48 h, the medium was replaced by IMDM medium containing 20% FBS, 2 mM L-glutamine, 0.1 mM β-mercaptoethanol, and penicillin-streptomycin. 50% of the culture media was replaced after 48 h and cell density was maintained at 0.5×10^6/mL. Total culture period for the assay was 6 days. Recombinant mouse IL-22 (PeproTech/Cell Signaling) was used where indicated.

The test system of a further series is human CD34+ stem cells. Conditions: cited from earlier work.
A further series relates to Il22ra1f/fEporcre mice. Put plainly: recombinant IL-22 administration to Il22ra1f/fEporcre mice subsequently treated with PhZ. The format is in vivo, mouse. Conditions: mice lacking the IL-22 receptor only on erythroid cells. How it is done:
as §4, §5

Another series concerns wild-type C57BL/6J mice. Nature of the series: recombinant IL-22 administration to wt C57BL/6J mice subsequently treated with PhZ. The format is in vivo, mouse. Particulars: for apoptosis of erythroid progenitors/precursors: in vivo. The procedure:
as §1, §2, §3, §4, §5

[4] abbreviates: Riok2 sufficient (Riok2+/+Vav1cre) mice, PhZ-induced anemia, vs isotype.
Where [5] appears, read: wt C57BL/6J mice undergoing PhZ-induced anemia, vs isotype.

“Also recorded” adds a separate entry of the source. Like-named read-outs stand apart in the source and are kept apart here.

Regarding `Nc1cccc2c1CN(C1CCC(=O)NC1=O)C2=O` (centres unmarked) [lenalidomide], the extension of survival is 4-6 months with MDS patients (HR-MDS group) and 14-17 months in the series with MDS patients (LR-MDS patients).
In the case of “anti-IL-22 (Clone IL22JOP): Monoclonal anti-IL-22 blocking antibody purchased from Thermo Fisher Scientific; used in Examples 2-16”, the “PB RBCs” value with IL-22 [1] (Riok2f/+Vav1cre mice, PhZ-induced anemia, anti-IL-22 50 μg/mouse i.p. every 48 h vs isotype) is listed as “anti-anemic effect; also recorded: increase”; with IL-22 [1] (setting [4]), “anti-anemic effect; also recorded: increase”; with IL-22 [1] (setting [5]) it was “increases; also recorded: significantly increased; also recorded: faster”; with IL-22 [3], “did not differ”. The HCT entry with IL-22 [1] (Riok2f/+Vav1cre mice, PhZ-induced anemia, vs isotype) is “anti-anemic effect; also recorded: increase”; with IL-22 [1] (setting [4]), “anti-anemic effect; also recorded: increase”; with IL-22 [1] (setting [5]) it was “significantly increased”; with IL-22 [3], “did not differ”. The “frequency of apoptotic erythroid progenitors/precursors” value is given as “reduced” with IL-22 [1] (Riok2f/+Vav1cre mice, PhZ) and “reduced” with IL-22 [1] (Riok2 sufficient mice, PhZ). In addition, the anemia result was “partially reversed; also recorded: alleviated” in the series with IL-22 [1] (Riok2 haploinsufficient (Riok2f/+Vav1cre) mice, vs isotype) and “alleviated” with IL-22 [1] (wild-type mice undergoing PhZ-induced stress erythropoiesis). In addition, the phenylhydrazine-induced anemia entry with IL-22 [1] (Riok2 sufficient (Riok2+/+Vav1cre) mice) is listed as “reversed”. In addition, the Hb result with IL-22 [1] (setting [5]) was “significantly increased”; with IL-22 [3] it was “did not differ”. The “frequency of RIII and RIV erythroid precursors in the BM” value with IL-22 [1] (wt C57BL/6J mice, PhZ, vs isotype) is given as “increased”. Further, the “neutralization of IL-22” value with IL-22 [2] was “effectively neutralize”.
For etanercept, the “efficacy in MDS patients” value with MDS patients (human, in vivo) is “ineffective”.
As to `N=c1sc2c(n1CC(=O)c1ccc([N+](=O)[O-])cc1)CCCC2` [pifithrin-α, p-nitro], the “secreted IL-22” value in the series on wild-type TH22 cells was “decreased”. The cell viability entry in the series on wild-type TH22 cells (viable cells by flow cytometry) is given as “did not decrease”. In the series on Lin- BM cells (IL-22-free assay, pifithrin-α, p-nitro 1 μM, Lin- BM cells from Riok2f/+Vav1cre mice), the “apoptosis induced by Riok2 haploinsufficiency” value was “inhibited”.
Take `CC(C)n1cnc2c(NCCc3ccc(O)cc3)nc(-c3csc4ccccc34)nc21` [Stemregenin 1]: in the series on human CD34+ stem cells (SR1-pretreated CD34+ cells vs untreated cells), the “increase in erythroid colonies” value is recorded as 129 fold. In addition, the “pluripotency of human CD34+ stem cells” value in the series on human CD34+ stem cells is on record as “maintain”. In addition, the “ex vivo expansion of human HSCs” value in the series with human CD34+ stem cells (highest fold expansion seen in the erythroid lineage) is reported as “promote”.
Regarding `COc1ccc(C2=N[C@@H](c3ccc(Cl)cc3)[C@@H](c3ccc(Cl)cc3)N2C(=O)N2CCNC(=O)C2)c(OC(C)C)c1` [nutlin-3], in the series with wild-type TH22 cells, the cell viability result is “did not decrease” and the “secreted IL-22” value is “increased”.

B1: rIL-22: recombinant IL-22 (PeproTech / Cell Signaling) (protein, UniProt Q9JJY9 34-179, looked up)
Interleukin-22: T1 sequence (Q9JJY9 34-179)
Turning to B1, in the series on Il22ra1f/fEporcre mice, the phenylhydrazine-induced anemia result is “failed to exacerbate”. For the same molecule, the “BM erythroid progenitor/precursor cells (frequency and number)” value in the series on wild-type C57BL/6J mice (7 days after PhZ, vs PBS) is given as “decreased”. Moreover, the “PB RBCs” value in the series on wild-type C57BL/6J mice (rIL-22 500 ng/mouse i.p. every 24 h, then PhZ, vs PBS) is on record as “decreased”. In the series on wild-type C57BL/6J mice (rIL-22 i.p., PhZ), the BM reticulocytes entry is “increase”, the PB reticulocytes entry is listed as “increase” and the “apoptosis of erythroid progenitors/precursors” value is on record as “increased; also recorded: induced”. For the same molecule, the “apoptosis of erythroid progenitors/precursors” value in the series with wild-type C57BL/6J mice (rIL-22 i.p., PhZ, listed as recombinant IL-22) is given as “increase”. For the same molecule, in the series on wild-type C57BL/6J mice (rIL-22 i.p., then PhZ, vs PBS), the HCT entry is reported as “decreased” and the Hb result is on record as “decreased”. Also, the “PhZ-induced (stress-induced) anemia” value with wild-type C57BL/6J mice (wt mice) is given as “exacerbates”. The p53 expression entry with Lin- BM cells is “upregulation”. For the same molecule, the p53 expression entry with Lin- BM cells (listed as recombinant IL-22) is reported as “induction”. Besides, the terminal erythropoiesis entry in the series on Lin- BM cells (recombinant IL-22, dose response) is on record as “dose-dependently decreased”.
